From patent US20230014722A1 come the findings set out here.

Usually EC50 stands for the concentration needed to bring the measured effect to its halfway point. A lower EC50 goes with an effect from little substance.

The test deals with cynomolgus PD-1 (Sino Biological), coated on plates (cynomolgus) (UniProt B0LAJ3). Description: ELISA, plates coated with cynomolgus PD-1 at 1 µg/ml. (In general: In an ELISA, binding on a coated surface is turned into a signal by an enzyme label.)
Chain of cynomolgus PD-1 (Sino Biological), coated on plates (cynomolgus) (B0LAJ3 entry or part of it limits assumed): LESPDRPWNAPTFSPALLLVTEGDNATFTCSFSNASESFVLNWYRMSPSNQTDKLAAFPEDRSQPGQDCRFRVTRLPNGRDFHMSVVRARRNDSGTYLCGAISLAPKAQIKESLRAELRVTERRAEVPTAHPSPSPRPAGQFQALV

Consider Keytruda (antibody), for which the EC50 was found to be 0.23 nM.
